Experimental data reported in the DeepSol protein solubility set.

assay: soluble on expression in E. coli; label from the status in PepcDB or PDB records

Row | Sequence | soluble on expression in E. coli
1 | MGSDKIHHHHHHMSTTEIVKEAESRHDFALIANWIQPQSKVLDLGCGNGSLLSFLREKLGVKGYGVDKDDDNVLACIGHGVNVIQMDLEAGLAGFDSLSFDYVILSQTLQAMVNTEGVLREMLRVGKQGIITFPNFGYWRHRIQLMAGHMPVSDNIPHQWYNTPNLHLCTIDDFEALCDKMNIRITDRIVINEGNTVSFMPNLFGSLAIYRFEQAAWPVSY | not soluble
2 | MGSDKIHHHHHHMPDMSMFGILNTALTGIHAHKLAMNIVGHNIANASTPGYSRQRPVIEANPPIPLTTLTQPSFPLQMGTGARVKTIVRLRDAFLDVQYRQVNNRYNYWDTVLSNLHFIEQLLAEPGEDGIRSLVDNFWNAFKEVMSDPSSTASKAEVVSRAQQMVSQIKDLYGRLEQLREDIDAEIVQRVSEINQMIKRLADLNNKIRTSMMLNSPPNDLLDERDRILDELSNLANINYTEAEDGQITLRIGNQIVLNGSTYRELRALERPYGKGYHELFVGNSQLILSDGKLKALIDLRDSSIVKYMRKLDEFVLFITDSLNLVHRDGFESNGVTTNLNFFKKIEAFSDDPSIFRIKGNRKLEMGPYHTVTGLHSANSQAEIEGRRFNSNDVVLSFDGGSSNVLNISAGTTIGDLVGSWNLLGTSLKVGTHAGGYRLYLEDSTGSLRNRLFLSLGDSLSQMGFDTETKGYITIKESDLSGLSSGVYNINVEYILEDGTRQTETISVDLSSGVNLSNIEASINSSSHLRAQIYADPSTGENMLVIVPDEQLNFDPSAVKVLSDDDFFTESNAFVRNYEVLKYKDTLENIFYGQTGFDPTRPFTITINSTDIEIDPAVDTLETLVEKINEKNTGVLADLTPHHSLVFRASSLYDFDLRMMEIKGPQGFFEAVGFVDPDGDPTTFDWNTSFTLVSKSDDFTTLSERFKVADILTFDRAPYDEPLNIVNQFEVSSSLATNPANLAVDVGYALENSDWNATSIKPSGGANPELLETIQNLYTRKMLSNGKESFYEFFGGVVSELGVEAETASNLKNNTEILRQEIDNAREEVKGVSLDEEMANMIEYQHAFSAAAKVITAVDQMIQTVINMVG | not soluble
3 | MSLRQLLQKRAMQSPNLEALVGGKKRYSFQQYNERVNQLAHYLLHNGVQRGDRIGILCKNNHPFPSVMMASLKIGAVFIPLNHQLTVYELETIVKEAKLKVLVIDEEFSEVLLNVDAVKEIPYVIQTTKEGFGSFELELQKQPTTEPNVEVHEEDDAIYLFTSGTTGQAKACVIGHKNLHHYFAEIAGQREIPAGERFLSVHPLFHMSGVLSILNCIYHGVTMIFLADSNPAIIWDKIEEEKITTMLAFPAVYSYMLDELNKKERNISTFKVAQSGGTKVPETLIQKYMEKGIYMVQGYGSTEGWVVTSWHPMMGKEKMSSVGKTLKNVEVKIVHPETGHELTTNEVGEIHVKSPYMFKGYWNNEKATKKVVKDNWFNMGDAGMIDDDGFLHIMGRYKDVIIRGGDNVYPDQVEDVIHEIQGVLEVAVVGVPDDFWGEVPRAYIVKDGETTLTEESIIQYCKEKLASYKIPEVVFIDELPKNALGKVLKRELRDVVLVKEGHHHHHH | soluble
4 | GPGSMTHDSRTPQGKSRVSGGSSCFPSGYLNNESFDLNSETDHVSANSSTCHPAESYHLLLPRELQTPAQHFTTPEIPEISSHSPLCSALFSSVTEMQHQSVLEVGVASDQGIRSSMEDEHVTVVEPEVCFFGIYDGHGGRQCAEYVRARLHEITLAHECLKTDPRKAISDAFAQVEREFLGQNTNDMSSAGCVCAAAVVQGSVLTVGNVGDCEVVLARAGQPVLLTVKHNPSCNDAEATRVKKAGGCIFNCRVGHPRFNPRMCSLAVSRAVGDAGFKLEEYTNGKPSGIIAVADTSEVLLAKDDEFLILACDGLWDTMSYAEAVELATAYMASGADANSVADQLVGEALRRGTRDNVTAIFVRLGGSAQAGLGDANK | not soluble
5 | MAETVGMILCGGFGKRLRPLTEKIPKPLIEIKEGYTILDKQLFDLKNAGINTVYLLTGFLGERIEERYGDNYKGLRIEYVREEKPLGTLNAIRLGMEAIDGEKQCIIRNGDVVADLNIKKMIHLGEMSDYPLTMFITRMQSPYGIVETSGDKIINFREKPLLDYYINAGVYFSKGNLDFGDFESGDIEKTLFPLMAKENKLGYYREDGLFWMAIDTSKELEEIRKEYRNREDKPWGYEKILINTEKYLTKELFIREGYRTSFHYHEEKDETMYIISGSGYIEFDNRKEYFSKNDTIRIEPGERHSIVAMENTVLHEVSTPHLNDTVRVQDYYTRLEHHHHHH | soluble
6 | MSQEHESSFQDPSRDELIQQVKELQIINANQRPEKILQEAFEKINLLVITIDQDGLIVYANEAFLEVIGWEKQRLLGENWKEFLEPGKDKNKEEHIYTLIKKQGFIDQLKRKFLSKEGDYRTIKFNVVIHHPIGNDVHLTTLIGEDIT | not soluble
7 | MNAHVTSREGVNEFDDGIVIVGGGLAAARTAEQLRRAGYSGRLTIVSDEVHLPYDRPPLSKEVLRSEVDDVALKPREFYDEKDIALRLGSAAVSLDTGEQTVTLADGTVLGYDELVIATGLVPRRIPSLPDLDGIRVLRSFDESMALRKHASAARHAVVVGAGFIGCEVAASLRGLGVDVVLVEPQPAPLASVLGEQIGQLVTRLHRDEGVDVRTGVTVAEVRGKGHVDAVVLTDGTELPADLVVVGIGSTPATEWLEGSGVEVDNGVICDKAGRTSAPNVWALGDVASWRDPMGHQARVEHWSNVADQARVVVPAMLGTDVPTGVVVPYFWSDQYDVKIQCLGEPHATDVVHLVEDDGRKFLAYYERDGVLVGVVGGGMAGKVMKVRGKIAAGAPIAEVLDQTQA | soluble
8 | HMTPQDHEKAALIMQVLQLTADQIAMLPPEQRQSILILKEQIQKSTGAP | soluble
9 | MGSDKIHHHHHHMEQDDKKLFVLDTNVLLHEPLAIYSFKEHDVVVPMTVLEELDQIKDRKRDVSRDARVAIRALEDILGGQTTPEEIVSGVPLPKREGHGDAVGSLSIFPDHQLEFTQASLPGDNNDNRIINTALHLQNQFAPRHVVLVTKDINMRLKAKGAGINLVEDYRTDQLIDDIRFLTKGFHQFEGDFWARKEHVNTETQGRHTVHRVPVKEVGEENFYTNQYLIDEDSNFCGRVLSNNDEELEILDLGRDRLLNLDAWGIKPKNVYQGMAMQALLDPDIDLVILTGPAGCGKTLLAMAAALEMVVERGLYDKVIVTRNTPEIAESIGFLPGTEEEKMAPWLAAITDTLEVLHKHDVNPSGSMNYIMDKANIQFKSINFMRGRSIQNSVVLLDECQNLTASQIKTMITRMGEGTKLICSGNLAQIDSNYLTAVTSGLTYIVERFKNFDGSANIYLNGVVRSRLAEFAEENL | not soluble
10 | MGSDKIHHHHHHMSTIIQNTLAPKVQNQLIHHLPALEQAELLSQAKLVQLNFADLLCQPGESYQYVYFPLTAFISLIAKLPKHPALEMGLIGYEGMLGATTLLSTRQVPSEAIIQGSGKAWRIPIATFEDLLAQSSSLRQILETYLYQLLCQLSQNAVCAHFHSVESRLARWLLMSHDRIQTNELFLTHQFLSDMLGVRRSSITEAAGELQASGCISYNRGRLYILDRQGLLARCCSCYHLMRT | not soluble
11 | MSLDTDRILRAFASLVQATLRTNYFVTRQGSARCRDVLALKLNAQLIDELPLPRPRYEIFVYSPRVEGVHLRFGPVARGGLRWSDRRDDFRTEILGLVKAQAVKNAVIVPVGAKGGFVVKRPPLPTGDPAADRDATRAEGVACYQLFISGLLDVTDNVDHATASVNPPPEVVRRDGDDAYLVVAADKGTATFSDIANDVAKSYGFWLGDAFASGGSVGYDHKAMGITARGAWEAVKRHFREIGIDTQTQDFTVVGIGDMSGDVFGNGMLLSKHIRLIAAFDHRHIFLDPNPDAAVSWAERRRMFELPRSSWSDYDRSLISEGGGVYSREQKAIPLSAQVRAVLGIDGSVDGGAAEMAPPNLIRAILRAPVDLLFNGGIGTYIKAESESDADVGDRANDPVRVNANQVRAKVIGEGGNLGVTALGRVEFDLSGGRINTDALDNSAGVDCSDHEVNIKILIDSLVSAGTVKADERTQLLESMTDEVAQLVLADNEDQNDLMGTSRANAASLLPVHAMQIKYLVAERGVNRELEALPSEKEIARRSEAGIGLTSPELATLMAHVKLGLKEEVLATELPDQDVFASRLPRYFPTALRERFTPEIRSHQLRREIVTTMLINDLVDTAGITYAFRIAEDVGVTPIDAVRTYVATDAIFGVGHIWRRIRAANLPIALSDRLTLDTREGHHHHHH | not soluble
12 | MKLKSFGVFGNPIKHSKSPLIHNACFLTFQKELRFLGHYHPILLPLESHIKSEFLHLGLSGANVTLPFKERAFQVCDKIKGIALECGAVNTLVLENDELVGYNTDALGFYLSLKQKNYQNALILGAGGSAKALACELKKQGLQVSVLNRSSRGLDFFQRLGCDCFMEPPKSAFDLIINATSASLHNELPLNKEVLKGYFKEGKLAYDLAYGFLTPFLSLAKELKTPFQDGKDMLIYQAALSFEKFSASQIPYSKAFEVMRSVFLEHHHHHH | soluble
13 | SIEKARSAAAKEVQKMKTSDKAEATHYLQMGAYADRQSAEGQRAKLAILGISSKVVGYQAGHKTLYRVQSGNMSADAVKKMQDELKKHEVASLIRSIESK | not soluble
14 | GTGRSRLLEDFRNNRFPNLQLRDLIGHIVEFSQDQHGSRFIQQKLERATPAERQIVFNEILQAAYQLMTDVFGNYVIQKFFEFGSLDQKLALATRIRGHVLPLALQMYGCRVIQKALESISSDQQSEMVKELDGHVLKCVKDQNGNHVVQKCIECVQPQSLQFIIDAFKGQVFVLSTHPYGCRVIQRILEHCTAEQTLPILEELHQHTEQLVQDQYGNYVIQHVLEHGRPEDKSKIVSEIRGKVLALSQHKFASNVVEKCVTHASRAERALLIDEVCCQNDGPHSALYTMMKDQYANYVVQKMIDMAEPAQRKIIMHKIRPHITTLRKYTYGKHILAKLEKYYLKNSPDLG | soluble
15 | MGSDKIHHHHHHMKDYTYSVTEINEYIKDLIEGDPYLTNVSVYGEISGVRPRKGHIFFSLVEENARLECVIFGGDNMGIRLQEGRMALVEGSVSVYIPHGTYRFICSNVRYLDQAGMYQIKFETTLKKLLEEGLLSRPKKTVPRFPRKIGIITSRDSAALQDVIRTARERKAPIEIYVFHTSVQGDSAREELIKALRKANEYDLDLVMIVRGGGSKEDLWVFNEEDVIREILRLRHPVVTGIGHEIDRVIADFVADVSMHTPTGAAEYVIPDASEIHEDLDSFFEKLITSLSNRFDMEERRLETLYFRLRMIGRRKLELNEFKIERVKELAAKLRKKLMDYFEHNQKKLDSLGRMLESLNPLRPLERGFVLVKKDEKIVKESTDLKRGDVVSLVFKDGTKKAQVIG | not soluble
16 | MGSDKIHHHHHHMKEKLRLYHTNDLHSHFENWPKIVDYIEQKRKEHQSDGEETLVFDIGDHLDRFQFVTEATFGKANVDLLNRLHIDGAAIGNNEGITLPHEELAALYDHAEFPVIVSNLFDKNGNRPSWAVPYHIKSLKNGMSIAFLGVTVPYYPVYDKLGWTVTDALESIKETILEVKGQADIIVLLSHLGILDDQAVAEAVPEIDVILESHTHHLLEDGQVVNGVLLASAEKYGHYVGCVEITVDSVQRSINSKTASVQNMAEWTGESAETKAFLNEKEREAEEKLSDAVAELAQDAEVKWFEESELPLLLAYALKEWCETDISMVNSGVILGPLKAGPVTKLDLHRICPHPINPVAVRLTGEELKETIVHAASEQMEQLRIKGLGFRGEVMGKMVYAGVEVETKRLDDGITHVTRITLNGEDIEKHKQYSVAVLDMFTLGKLFPLIRDAAEKEYFMPEFLRDLLAWKLAQ | not soluble
17 | EGKTSSASPNNPQELKRRVIEEGFRRAGIEFGGLKGNSLEALRQFGDPMMATVVGLSLGFKGDVVLAGGTQMLAVAAILKGLGEDLSRFMIATTRWVVEDKSATFIKTAREIGIISYAADLDFSKSEFKGLRDYEKGYVKEGVGAGGATWLAV | not soluble
